According to the supplement of paper PMC9112550, “Optimization of the antimicrobial peptide Bac7 by deep mutational scanning” (BMC Biology, 2022):

Tested on: Escherichia coli TOP10
Experiment: shrunken log2 fold change of peptide-encoding DNA abundance (4.5 h post-induction vs induction); higher = less antimicrobial activity (less host growth inhibition)
Settings: time post-induction: 4.5 h; library: site-saturation at positions 5, 18, 19, 20
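Also: peptides expressed intracellularly from a pBAD plasmid library in pooled LB shake-flask culture, induced with 0.3% L-arabinose, DNA abundance read by NGS, three biological replicates, DESeq2 with apeglm shrinkage.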

RRIRHRPPRLPRPRPRPKTFPRP
shrunken log2 fold change: -0.45

RRIRHRPPRLPRPRPRPKVSPRP
shrunken log2 fold change: -0.112

RRIRHRPPRLPRPRPRPKWWPRP
shrunken log2 fold change: 0.0178

RRIRHRPPRLPRPRPRPLAVPRP
shrunken log2 fold change: 0.0391

RRIRHRPPRLPRPRPRPLFAPRP
shrunken log2 fold change: 0.107

RRIRHRPPRLPRPRPRPLGSPRP
shrunken log2 fold change: 0.0703

RRIRHRPPRLPRPRPRPLIIPRP
shrunken log2 fold change: -0.377

RRIRHRPPRLPRPRPRPLLHPRP
shrunken log2 fold change: -0.238

RRIRHRPPRLPRPRPRPLLTPRP
shrunken log2 fold change: -0.338

RRIRHRPPRLPRPRPRPLMTPRP
shrunken log2 fold change: -0.192

RRIRHRPPRLPRPRPRPLNLPRP
shrunken log2 fold change: 0.00301

RRIRHRPPRLPRPRPRPLPEPRP
shrunken log2 fold change: 0.126

RRIRHRPPRLPRPRPRPLQGPRP
shrunken log2 fold change: 0.00978

RRIRHRPPRLPRPRPRPLRPPRP
shrunken log2 fold change: 0.639

RRIRHRPPRLPRPRPRPLSPPRP
shrunken log2 fold change: -0.0711

RRIRHRPPRLPRPRPRPLTEPRP
shrunken log2 fold change: -0.342

RRIRHRPPRLPRPRPRPLTGPRP
shrunken log2 fold change: -0.00273

RRIRHRPPRLPRPRPRPLVCPRP
shrunken log2 fold change: -9.35e-05

RRIRHRPPRLPRPRPRPLWCPRP
shrunken log2 fold change: -0.22

RRIRHRPPRLPRPRPRPLWRPRP
shrunken log2 fold change: 0.57

RRIRHRPPRLPRPRPRPLYWPRP
shrunken log2 fold change: -0.276

RRIRHRPPRLPRPRPRPMCHPRP
shrunken log2 fold change: -0.00674

RRIRHRPPRLPRPRPRPMCMPRP
shrunken log2 fold change: 0.201

RRIRHRPPRLPRPRPRPMDNPRP
shrunken log2 fold change: -0.262

RRIRHRPPRLPRPRPRPMDSPRP
shrunken log2 fold change: -0.00141

RRIRHRPPRLPRPRPRPMFFPRP
shrunken log2 fold change: -0.347

RRIRHRPPRLPRPRPRPMFKPRP
shrunken log2 fold change: -0.625

RRIRHRPPRLPRPRPRPMFPPRP
shrunken log2 fold change: -0.281

RRIRHRPPRLPRPRPRPMHMPRP
shrunken log2 fold change: -0.0761

RRIRHRPPRLPRPRPRPMIHPRP
shrunken log2 fold change: -0.382

RRIRHRPPRLPRPRPRPMIIPRP
shrunken log2 fold change: -0.205

RRIRHRPPRLPRPRPRPMIRPRP
shrunken log2 fold change: -0.173

RRIRHRPPRLPRPRPRPMKPPRP
shrunken log2 fold change: -0.0628

RRIRHRPPRLPRPRPRPMMAPRP
shrunken log2 fold change: 0.183

RRIRHRPPRLPRPRPRPMMHPRP
shrunken log2 fold change: 0.117

RRIRHRPPRLPRPRPRPMMLPRP
shrunken log2 fold change: -0.286

RRIRHRPPRLPRPRPRPMMRPRP
shrunken log2 fold change: 0.0201

RRIRHRPPRLPRPRPRPMNKPRP
shrunken log2 fold change: -0.329

RRIRHRPPRLPRPRPRPMNMPRP
shrunken log2 fold change: -0.00968

RRIRHRPPRLPRPRPRPMRCPRP
shrunken log2 fold change: 0.309

RRIRHRPPRLPRPRPRPMYMPRP
shrunken log2 fold change: -0.369

RRIRHRPPRLPRPRPRPNASPRP
shrunken log2 fold change: 0.0449

RRIRHRPPRLPRPRPRPNCKPRP
shrunken log2 fold change: -0.211

RRIRHRPPRLPRPRPRPNCNPRP
shrunken log2 fold change: -0.589

RRIRHRPPRLPRPRPRPNCVPRP
shrunken log2 fold change: -0.0146

RRIRHRPPRLPRPRPRPNENPRP
shrunken log2 fold change: -0.579

RRIRHRPPRLPRPRPRPNGTPRP
shrunken log2 fold change: -0.297

RRIRHRPPRLPRPRPRPNIGPRP
shrunken log2 fold change: -0.431

RRIRHRPPRLPRPRPRPNIRPRP
shrunken log2 fold change: 0.0598

RRIRHRPPRLPRPRPRPNLCPRP
shrunken log2 fold change: 0.0613

RRIRHRPPRLPRPRPRPNLHPRP
shrunken log2 fold change: -0.759

RRIRHRPPRLPRPRPRPNLIPRP
shrunken log2 fold change: -0.00121

RRIRHRPPRLPRPRPRPNNCPRP
shrunken log2 fold change: -0.0202

RRIRHRPPRLPRPRPRPNNFPRP
shrunken log2 fold change: -0.0738

RRIRHRPPRLPRPRPRPNQNPRP
shrunken log2 fold change: -0.285

RRIRHRPPRLPRPRPRPNQYPRP
shrunken log2 fold change: -0.663

RRIRHRPPRLPRPRPRPNTIPRP
shrunken log2 fold change: -0.903

RRIRHRPPRLPRPRPRPNYMPRP
shrunken log2 fold change: -0.0657

RRIRHRPPRLPRPRPRPNYTPRP
shrunken log2 fold change: -0.529

RRIRHRPPRLPRPRPRPPCPPRP
shrunken log2 fold change: -0.0235

RRIRHRPPRLPRPRPRPPFYPRP
shrunken log2 fold change: -0.288

RRIRHRPPRLPRPRPRPPGDPRP
shrunken log2 fold change: 0.477

RRIRHRPPRLPRPRPRPPGPPRP
shrunken log2 fold change: 0.196

RRIRHRPPRLPRPRPRPPKVPRP
shrunken log2 fold change: 0.0708

RRIRHRPPRLPRPRPRPPKWPRP
shrunken log2 fold change: 0.345

RRIRHRPPRLPRPRPRPPMWPRP
shrunken log2 fold change: 1.04

RRIRHRPPRLPRPRPRPPNPPRP
shrunken log2 fold change: 0.238

RRIRHRPPRLPRPRPRPPQIPRP
shrunken log2 fold change: -0.0667

RRIRHRPPRLPRPRPRPPSVPRP
shrunken log2 fold change: 0.241

RRIRHRPPRLPRPRPRPPTYPRP
shrunken log2 fold change: -0.0835

RRIRHRPPRLPRPRPRPPYMPRP
shrunken log2 fold change: -0.539

RRIRHRPPRLPRPRPRPQAFPRP
shrunken log2 fold change: -0.0247

RRIRHRPPRLPRPRPRPQCNPRP
shrunken log2 fold change: -0.169

RRIRHRPPRLPRPRPRPQDHPRP
shrunken log2 fold change: -0.215

RRIRHRPPRLPRPRPRPQDRPRP
shrunken log2 fold change: -0.111

RRIRHRPPRLPRPRPRPQFCPRP
shrunken log2 fold change: -0.208

RRIRHRPPRLPRPRPRPQFLPRP
shrunken log2 fold change: -0.653

RRIRHRPPRLPRPRPRPQGVPRP
shrunken log2 fold change: -0.00445

RRIRHRPPRLPRPRPRPQHGPRP
shrunken log2 fold change: 0.00949

RRIRHRPPRLPRPRPRPQHQPRP
shrunken log2 fold change: -0.192

RRIRHRPPRLPRPRPRPQIWPRP
shrunken log2 fold change: -0.327

RRIRHRPPRLPRPRPRPQKCPRP
shrunken log2 fold change: -0.0302

RRIRHRPPRLPRPRPRPQKNPRP
shrunken log2 fold change: -0.3

RRIRHRPPRLPRPRPRPQMCPRP
shrunken log2 fold change: -0.0203

RRIRHRPPRLPRPRPRPQPFPRP
shrunken log2 fold change: -0.213

RRIRHRPPRLPRPRPRPQQPPRP
shrunken log2 fold change: 0.176

RRIRHRPPRLPRPRPRPQRGPRP
shrunken log2 fold change: -0.0034

RRIRHRPPRLPRPRPRPQRMPRP
shrunken log2 fold change: -0.16

RRIRHRPPRLPRPRPRPQSDPRP
shrunken log2 fold change: 0.0136

RRIRHRPPRLPRPRPRPQSNPRP
shrunken log2 fold change: -0.288

RRIRHRPPRLPRPRPRPQTWPRP
shrunken log2 fold change: -0.332

RRIRHRPPRLPRPRPRPQWFPRP
shrunken log2 fold change: -0.0606

RRIRHRPPRLPRPRPRPQWLPRP
shrunken log2 fold change: 0.134

RRIRHRPPRLPRPRPRPQWTPRP
shrunken log2 fold change: -0.00992

RRIRHRPPRLPRPRPRPQYGPRP
shrunken log2 fold change: -0.0192

RRIRHRPPRLPRPRPRPRARPRP
shrunken log2 fold change: 0.814

RRIRHRPPRLPRPRPRPRDDPRP
shrunken log2 fold change: -0.0505

RRIRHRPPRLPRPRPRPREAPRP
shrunken log2 fold change: -0.0215

RRIRHRPPRLPRPRPRPRESPRP
shrunken log2 fold change: -0.0496

RRIRHRPPRLPRPRPRPRFIPRP
shrunken log2 fold change: -0.135

RRIRHRPPRLPRPRPRPRGRPRP
shrunken log2 fold change: -0.0974

RRIRHRPPRLPRPRPRPRIDPRP
shrunken log2 fold change: -0.511

RRIRHRPPRLPRPRPRPRLIPRP
shrunken log2 fold change: -0.0786

RRIRHRPPRLPRPRPRPRMNPRP
shrunken log2 fold change: -0.197

RRIRHRPPRLPRPRPRPRNDPRP
shrunken log2 fold change: -0.0937

RRIRHRPPRLPRPRPRPRPLPRP
shrunken log2 fold change: 0.255

RRIRHRPPRLPRPRPRPRQAPRP
shrunken log2 fold change: 0.495

RRIRHRPPRLPRPRPRPRQTPRP
shrunken log2 fold change: 0.0257

RRIRHRPPRLPRPRPRPRREPRP
shrunken log2 fold change: 0.217

RRIRHRPPRLPRPRPRPRRLPRP
shrunken log2 fold change: -0.0808

RRIRHRPPRLPRPRPRPRRTPRP
shrunken log2 fold change: 0.0506

RRIRHRPPRLPRPRPRPRRYPRP
shrunken log2 fold change: 0.0129

RRIRHRPPRLPRPRPRPRSEPRP
shrunken log2 fold change: 0.117

RRIRHRPPRLPRPRPRPRVAPRP
shrunken log2 fold change: 0.395

RRIRHRPPRLPRPRPRPRVNPRP
shrunken log2 fold change: 0.106

RRIRHRPPRLPRPRPRPRVRPRP
shrunken log2 fold change: 0.0975

RRIRHRPPRLPRPRPRPRWSPRP
shrunken log2 fold change: 0.00212

RRIRHRPPRLPRPRPRPRYAPRP
shrunken log2 fold change: -0.0694

RRIRHRPPRLPRPRPRPRYEPRP
shrunken log2 fold change: -0.0765

RRIRHRPPRLPRPRPRPRYLPRP
shrunken log2 fold change: -0.0229

RRIRHRPPRLPRPRPRPRYVPRP
shrunken log2 fold change: -0.585

RRIRHRPPRLPRPRPRPSATPRP
shrunken log2 fold change: -0.00655

RRIRHRPPRLPRPRPRPSAWPRP
shrunken log2 fold change: 0.373

RRIRHRPPRLPRPRPRPSDGPRP
shrunken log2 fold change: -0.266

RRIRHRPPRLPRPRPRPSEDPRP
shrunken log2 fold change: -0.00172

RRIRHRPPRLPRPRPRPSEQPRP
shrunken log2 fold change: -0.178

RRIRHRPPRLPRPRPRPSFPPRP
shrunken log2 fold change: -0.207

RRIRHRPPRLPRPRPRPSFYPRP
shrunken log2 fold change: -1.09

RRIRHRPPRLPRPRPRPSGDPRP
shrunken log2 fold change: -0.107

RRIRHRPPRLPRPRPRPSGPPRP
shrunken log2 fold change: 0.082

RRIRHRPPRLPRPRPRPSIYPRP
shrunken log2 fold change: -0.418

RRIRHRPPRLPRPRPRPSKCPRP
shrunken log2 fold change: -1.04

RRIRHRPPRLPRPRPRPSKTPRP
shrunken log2 fold change: -0.24

RRIRHRPPRLPRPRPRPSMFPRP
shrunken log2 fold change: -0.163

RRIRHRPPRLPRPRPRPSNEPRP
shrunken log2 fold change: -0.271

RRIRHRPPRLPRPRPRPSNNPRP
shrunken log2 fold change: -0.549

RRIRHRPPRLPRPRPRPSPWPRP
shrunken log2 fold change: 0.0405

RRIRHRPPRLPRPRPRPSQLPRP
shrunken log2 fold change: -0.00148

RRIRHRPPRLPRPRPRPSSCPRP
shrunken log2 fold change: -0.0272

RRIRHRPPRLPRPRPRPSSPPRP
shrunken log2 fold change: -0.316

RRIRHRPPRLPRPRPRPSSTPRP
shrunken log2 fold change: -0.741

RRIRHRPPRLPRPRPRPSTAPRP
shrunken log2 fold change: -0.24

RRIRHRPPRLPRPRPRPSVEPRP
shrunken log2 fold change: -0.2

RRIRHRPPRLPRPRPRPSVHPRP
shrunken log2 fold change: -0.204

RRIRHRPPRLPRPRPRPSVMPRP
shrunken log2 fold change: -0.19

RRIRHRPPRLPRPRPRPTDEPRP
shrunken log2 fold change: -0.123

RRIRHRPPRLPRPRPRPTFCPRP
shrunken log2 fold change: -0.186

RRIRHRPPRLPRPRPRPTFMPRP
shrunken log2 fold change: -0.102

RRIRHRPPRLPRPRPRPTGCPRP
shrunken log2 fold change: -0.0228

RRIRHRPPRLPRPRPRPTGMPRP
shrunken log2 fold change: 0.156
